Laboratory results taken from patent US20090004198A1 (published 2009).

Target: T1, GST-HCMV-AD1 fusion protein (human cytomegalovirus (HCMV), UniProt P06473 552-635)
T1 construct: also called GST fused HCMV-AD1; not shown: GST (glutathione S-transferase) fusion partner
Test: BIAcore (SPR); antigen fixed to the sensor chip, antibody as analyte; GST protein as control

T1 sequence (P06473 552-635 limits assumed): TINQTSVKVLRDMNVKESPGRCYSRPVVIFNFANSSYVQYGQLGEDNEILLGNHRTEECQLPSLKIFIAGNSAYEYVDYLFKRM

B1: anti-HCMV antibody (G3D No. 9) (antibody, human IgG1, kappa, V domains shown)
VH: QVQLVESGGGMVQPGKSLRLSCAASGFTFSSYGMHWVRQAPGRGLEWVAIIWYDGDNTWYADSVKGRITISRDNSKNMLYLQMDSLRVEDTALYYCVRGGLGYFNGWDVDHWGQGTLVTVSS
VL: DVVMTQSPLSLPVTLGQPASISCRSSESLVYSDGNTYLNWFQQRPGQSPRRLISKVSNRDSGVPDRFSGSGSGTDFTLKISRVEAEDVGVYYCMQGSHWPPYTFGQGTKLEIKR
notes: also called G3D No. 9 antibody; anti-HCMV monoclonal antibody
**Q.** For B1, which Kd is on record?
**A.** 0.0116 nM
